The target in this test is platelet GPIIIa (integrin beta3) on platelets (human) (UniProt P05106). The test can be described thus: cell-based or functional assay.
platelet GPIIIa (integrin beta3) on platelets (human), sequence (P05106 27-788): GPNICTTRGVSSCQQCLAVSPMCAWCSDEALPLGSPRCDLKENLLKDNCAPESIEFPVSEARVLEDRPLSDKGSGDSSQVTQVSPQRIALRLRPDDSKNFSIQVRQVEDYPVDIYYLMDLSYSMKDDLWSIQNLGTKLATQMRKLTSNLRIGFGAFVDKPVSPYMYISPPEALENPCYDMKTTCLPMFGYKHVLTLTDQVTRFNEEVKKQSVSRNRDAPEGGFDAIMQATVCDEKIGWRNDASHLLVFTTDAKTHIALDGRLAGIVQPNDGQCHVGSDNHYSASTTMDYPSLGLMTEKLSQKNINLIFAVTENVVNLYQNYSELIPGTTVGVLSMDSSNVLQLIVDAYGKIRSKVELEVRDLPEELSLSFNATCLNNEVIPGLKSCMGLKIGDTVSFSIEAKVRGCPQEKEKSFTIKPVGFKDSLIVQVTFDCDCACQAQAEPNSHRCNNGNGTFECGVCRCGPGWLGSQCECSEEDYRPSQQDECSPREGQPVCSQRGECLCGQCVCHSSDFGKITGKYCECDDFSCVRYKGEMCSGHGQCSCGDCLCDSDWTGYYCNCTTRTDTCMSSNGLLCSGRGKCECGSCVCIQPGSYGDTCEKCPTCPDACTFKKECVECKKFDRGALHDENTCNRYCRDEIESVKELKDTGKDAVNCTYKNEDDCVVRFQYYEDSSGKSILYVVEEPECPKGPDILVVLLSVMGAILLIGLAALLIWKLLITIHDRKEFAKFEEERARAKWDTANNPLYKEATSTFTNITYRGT

Take “ADAMTS-18 66 amino acid fragment (1156-1221) (from UniProt Q8TE60 1156-1221) (ligand)”: the platelet fragmentation turned out to be 85 µM.

Source of the values: US20110045008A1.
